Experimental data from PMC9620234, “Design, Synthesis, and Biochemical and Biological Evaluation of Novel 7-Deazapurine Cyclic Dinucleotide Analogues as STING Receptor Agonists” (Journal of Medicinal Chemistry, 2022).

Molecular target: the molecule itself
Test: crystal structure; wt hSTING (140-379) co-crystallised with CDN 5f, 5k, 5l or 5m; sitting drop vapor diffusion, 18 °C; chains A/B with one ligand molecule

B1: human wild-type STING truncated to residues 140–379 (domain or fragment, UniProt Q86WV6 140-379, looked up)
chain: APAEISAVCEKGNFNVAHGLAWSYYIGYLRLILPELQARIRTYNQHYNNLLRGAVSQRLYILLPLDCGVPDNLSMADPNIRFLDKLPQQTGDHAGIKDRVYSNSIYELLENGQRAGTCVLEYATPLQTLFAMSQYSQAGFSREDRLEQAKLFCRTLEDILADAPESQNNCRLIAYQEPADDSSFSLSQEVLRHLRQEEKEEVTVGSLKTSAVPSTSTMSQEPELLISGMEKPLPLRTDFS
notes: stimulator of interferon genes (STING), human, wild-type allele, UniProt Q86WV6, residues 140-379; Each crystal also holds one cyclic dinucleotide ligand (5f, 5k, 5l or 5m) in the site between the two chains; also called wt hSTING; stimulator of interferon genes; source: E. coli BL21 (DE3), purified (Ni-NTA, Ulp1 protease digestion, SEC, HiTrap Capto S)
  binding result: binds
